According to publication PMC10302723, “Differential regulation of Shigella Spa47 ATPase activity by a native C-terminal product of Spa33” (Frontiers in Cellular and Infection Microbiology, 2023):

Assays:
[1] = target: the molecule itself; assay: AUC; sedimentation velocity of purified His-tagged Spa33C; a single dominant species of 27 ± 3 kDa; monomer to dimer
[2] = target: T1, monomeric Spa47 (SEC-isolated) (Shigella, UniProt P0A1C1 1-430); assay: fluorescence polarisation; EGFP-Spa33C (or EGFP as control) held at 100 nM, Spa47 monomer or oligomer titrated 0-1.5 μM (monomer units); single site saturation binding model; concentration at half-maximum change in polarisation; conditions: both partners purified
T1 construct: Spa47, Shigella T3SS ATPase; Same construct as m5 and m8; also called Spa47 monomer; monomeric Spa47 isolate; source: E. coli, purified (chitin column with on-column intein cleavage, anion exchange, SEC isolation of the monomer)

[3] = target: T2, oligomeric Spa47 (SEC-isolated homo-oligomer) (Shigella, UniProt P0A1C1 1-430); assay: as above; conditions: both partners purified
T2 construct: Spa47, Shigella T3SS ATPase; Same construct as m5 and m7; also called Spa47 oligomer; homo-oligomeric Spa47; source: E. coli, purified (chitin column with on-column intein cleavage, anion exchange, SEC isolation of the oligomer)

B1: Spa33C containing an N-terminal 6 x histidine tag (domain or fragment)
chain: MNDNNEAKINLSESNGESEHTEVSLALFNYDDINVKVDFILLEKNMTINELKMYVENELFKFPDDIVKHVNIKVNGSLVGHGELVSIEDGYGIEISSWMVKE
notes: Spa33, Shigella flexneri 2457T; Homodimer by SV-AUC (27 ± 3 kDa; dimer with His tag = 27.5 kDa); also called recombinant Spa33C; homo-dimeric Spa33C; source: E. coli, purified (IMAC, SEC); not shown: His6, N-terminal, kept
B1 was tested. Which “stoichiometry N” value [1] did it give?
Its value is 2.

B2: EGFP-Spa33C fluorescent protein chimera with an N-terminal 6 x histidine tag (domain or fragment)
chain: B1 chain
notes: Spa33, Shigella flexneri 2457T; EGFP is the fluorescent probe of the polarisation assay; Oligomer state of the chimera was not measured (Spa33C with His tag is a homodimer); also called fluorescent Spa33C construct; source: E. coli (pET15b), purified (IMAC, SEC); not shown: EGFP, N-terminal, kept
How did the Kd [2] turn out when B2 was run?
Its Kd is 50 ± 7 nM.

And the Kd [3]?
The Kd was 80 ± 10 nM.
